This assay addresses T1, human NPY2 receptor (human, UniProt P49146 1-381).
T1 construct: whole, on cells; also called hNPY2-R; hNPY2R
T1 sequence (looked up): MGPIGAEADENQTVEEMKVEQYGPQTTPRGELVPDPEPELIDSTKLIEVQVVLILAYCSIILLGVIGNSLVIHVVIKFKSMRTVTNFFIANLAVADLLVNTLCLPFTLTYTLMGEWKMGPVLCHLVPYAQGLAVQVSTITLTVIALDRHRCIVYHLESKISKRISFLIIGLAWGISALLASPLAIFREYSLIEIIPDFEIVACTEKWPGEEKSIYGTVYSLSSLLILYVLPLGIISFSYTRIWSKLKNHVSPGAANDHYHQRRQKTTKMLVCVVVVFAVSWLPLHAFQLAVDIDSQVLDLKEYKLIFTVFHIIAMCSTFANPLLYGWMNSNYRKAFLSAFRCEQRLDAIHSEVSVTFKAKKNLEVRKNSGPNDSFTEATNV
Description: RLB: displacement of 125I-PYY(1-36) from hNPY2R membranes.

The record followed here is patent US20260015399A1 (Boehringer Ingelheim, published 2026).

*1 amine or outer side, *2 acyl side, *3 side chain or, on linkers, in order; H or OH if unused. Side-chain parts run from the residue outwards. The star is where a group is joined. C18 diacid = O=C(O)CCCCCCCCCCCCCCCCC(=O)*; γGlu = O=C(O)[C@H](CCC(=O)[*:2])N[*:1]; Isovaleryl = CC(C)CC(=O)*; Ahx = NCCCCCC(=O)O

In general, Ki refers to a dissociation constant, usually derived from enzyme kinetics or from competition with a known ligand. Read a low Ki as a stronger hold on the target.

B1: Compound 31 (peptide)
peptide: Isovaleryl-APEK([Ahx-γGlu-C18 diacid])PEEDATPEELQPYYVSLRHYYNWLTRQRY-NH2
SMILES: CC(C)CC(=O)N[C@@H](C)C(=O)N1CCC[C@H]1C(=O)N[C@@H](CCC(=O)O)C(=O)N[C@@H](CCCCNC(=O)CCCCCNC(=O)CC[C@H](NC(=O)CCCCCCCCCCCCCCCCC(=O)O)C(=O)O)C(=O)N1CCC[C@H]1C(=O)N[C@@H](CCC(=O)O)C(=O)N[C@@H](CCC(=O)O)C(=O)N[C@@H](CC(=O)O)C(=O)N[C@@H](C)C(=O)N[C@H](C(=O)N1CCC[C@H]1C(=O)N[C@@H](CCC(=O)O)C(=O)N[C@@H](CCC(=O)O)C(=O)N[C@@H](CC(C)C)C(=O)N[C@@H](CCC(N)=O)C(=O)N1CCC[C@H]1C(=O)N[C@@H](Cc1ccc(O)cc1)C(=O)N[C@@H](Cc1ccc(O)cc1)C(=O)N[C@H](C(=O)N[C@@H](CO)C(=O)N[C@@H](CC(C)C)C(=O)N[C@@H](CCCNC(=N)N)C(=O)N[C@@H](Cc1c[nH]cn1)C(=O)N[C@@H](Cc1ccc(O)cc1)C(=O)N[C@@H](Cc1ccc(O)cc1)C(=O)N[C@@H](CC(N)=O)C(=O)N[C@@H](Cc1c[nH]c2ccccc12)C(=O)N[C@@H](CC(C)C)C(=O)N[C@H](C(=O)N[C@@H](CCCNC(=N)N)C(=O)N[C@@H](CCC(N)=O)C(=O)N[C@@H](CCCNC(=N)N)C(=O)N[C@@H](Cc1ccc(O)cc1)C(N)=O)[C@@H](C)O)C(C)C)[C@@H](C)O
In turn, B1 came in with a Ki of 34.7 nM.

B2: Compound 32 (peptide)
peptide: Isovaleryl-APAK([Ahx-γGlu-C18 diacid])PEEDASPEELQRYYVSLRHQYNWLTRQRY-NH2
SMILES: CC(C)CC(=O)N[C@@H](C)C(=O)N1CCC[C@H]1C(=O)N[C@@H](C)C(=O)N[C@@H](CCCCNC(=O)CCCCCNC(=O)CC[C@H](NC(=O)CCCCCCCCCCCCCCCCC(=O)O)C(=O)O)C(=O)N1CCC[C@H]1C(=O)N[C@@H](CCC(=O)O)C(=O)N[C@@H](CCC(=O)O)C(=O)N[C@@H](CC(=O)O)C(=O)N[C@@H](C)C(=O)N[C@@H](CO)C(=O)N1CCC[C@H]1C(=O)N[C@@H](CCC(=O)O)C(=O)N[C@@H](CCC(=O)O)C(=O)N[C@@H](CC(C)C)C(=O)N[C@@H](CCC(N)=O)C(=O)N[C@@H](CCCNC(=N)N)C(=O)N[C@@H](Cc1ccc(O)cc1)C(=O)N[C@@H](Cc1ccc(O)cc1)C(=O)N[C@H](C(=O)N[C@@H](CO)C(=O)N[C@@H](CC(C)C)C(=O)N[C@@H](CCCNC(=N)N)C(=O)N[C@@H](Cc1c[nH]cn1)C(=O)N[C@@H](CCC(N)=O)C(=O)N[C@@H](Cc1ccc(O)cc1)C(=O)N[C@@H](CC(N)=O)C(=O)N[C@@H](Cc1c[nH]c2ccccc12)C(=O)N[C@@H](CC(C)C)C(=O)N[C@H](C(=O)N[C@@H](CCCNC(=N)N)C(=O)N[C@@H](CCC(N)=O)C(=O)N[C@@H](CCCNC(=N)N)C(=O)N[C@@H](Cc1ccc(O)cc1)C(N)=O)[C@@H](C)O)C(C)C
The molecule B2 gave a Ki of 13.6 nM.
